This data set concerns the molecule itself. Kind of data set: migration on a gel, Western blot; FLAG-tagged mIL-22 from L. reuteri grown in LDM3 at 37°C to OD600 3.5; total lysate (VPL31125) or protein precipitated from culture supernatant (VPL3778); samples prepared as in ref. 14; gel conditions not told. (In general: In western blotting, separated proteins are transferred to a membrane and probed.)

A word on the stoichiometry N: it is the number of molecules, sites or subunits per partner or assembly.

B1: murine interleukin-22 with C-terminal 3x FLAG tag, without signal peptide (IL-22:3X FLAG, pVPL31125) (natural protein, mouse, UniProt Q9JJY9 34-179, looked up)
chain: LPVNTRCKLEVSNFQQPYIVNRTFMLAKEASLADNNTDVRLIGEKLFRGVSAKDQCYLMKQVLNFTLEDVLLPQSDRFQPYMQEVVPFLTKLSNQLSSCHISGDDQNIQKNVRRLKETVKKLGESGEIKAIGELDLLFMSLRNACV
notes: also called mIL-22; source: L. reuteri VPL31125 (accumulates mIL-22 intracellularly), total lysate; not shown: 3x FLAG, C-terminal, kept
On to B1, for which the “stoichiometry N” value turned out to be 4.

B2: murine interleukin-22 with C-terminal 3x FLAG tag, cleaved from the fusion with a Lactobacillus reuteri signal peptide (SP:IL-22:3X FLAG, pVPL3776) (natural protein, mouse, UniProt Q9JJY9 34-179, looked up)
chain: B1 chain
notes: the rest kept the signal peptide; also called mIL-22; mature mIL-22; source: L. reuteri VPL3778 (engineered to secrete mIL-22), protein precipitated from culture supernatant; not shown: 3x FLAG, C-terminal, kept
Regarding B2, the “stoichiometry N” value worked out at 4.

These data come from publication PMC7316485, “Secretion of Recombinant Interleukin-22 by Engineered Lactobacillus reuteri Reduces Fatty Liver Disease in a Mouse Model of Diet-Induced Obesity” (mSphere, 2020).
